Our source for the Kd, fold increase of Pin1 inhibitory activity on substitution of D-Phe for D-Ala and fold improvement of binding affinity against peptide 4 values is US20170355730A1.

Starred links: 1 amine or outer side, 2 acyl side, 3 side chain; linkers in the order of their positions; H or OH if unused. Non-standard residues stand in square brackets, D forms with d. Primed or numbered codes have the meaning given here. No end group written: not given here. Trimesoyl = O=C(c1cc(C(=O)[*:2])cc(C(=O)[*:3])c1)[*:1]; dPhe(4-CN) = N#Cc1ccc(C[C@@H](N)C(=O)O)cc1; d(pT) = C[C@H](OP(=O)(O)O)[C@@H](N)C(=O)O; Phe(4-F) = N[C@@H](Cc1ccc(F)cc1)C(=O)O; 2Nal = N[C@@H](Cc1ccc2ccccc2c1)C(=O)O; Pip′ = L-homoproline (pipecolyl); D‑4‑Phe = not defined here; Pip = O=C(O)[C@@H]1CCCCN1; d4Phe = not defined here; Dap = NC[C@H](N)C(=O)O; βAla = NCCC(=O)O; Sar = CNCC(=O)O

B1: peptide 42 (Table 18) (peptide)
peptide: Trimesoyl-[dF][Phe(4-F)][dT][Pip′][2Nal]RA[dF][Dap]RRRR[2Nal]F[Dap]K
modifications: linker (positions not given here) via Trimesoyl; not fully specified (C-terminus, bridges); printed as bicyclo[Tm-(D-Phe-Fpa-D-Thr-Pip-Nal-Arg-Ala-D-Phe)-Dap-(Arg-Arg-Arg-Arg-Nal-Phe-Dap)]-Lys
B2: peptide 22 (Table 18) (peptide)
peptide: Trimesoyl-P[Sar][dD][Pip′][2Nal]RR[dF][Dap]F[2Nal]RRRR[Dap]K-NH2
modifications: linker (positions not given here) via Trimesoyl; not fully specified (some residues, bridges); printed as bicyclo[Tm-(Pro-Sar-D-Asp-Pip-Nal-Arg-Arg-D-Phe)-Dap-(Phe-Nal-Arg-Arg-Arg-Arg-Dap)]-Lys
B3: peptide 11 (Table 18) (peptide)
peptide: Trimesoyl-[dF][Phe(4-F)][dT][Pip][2Nal]RA[Dap]F[2Nal]RRRR[Dap]K
modifications: linker (positions not given here) via Trimesoyl; not fully specified (C-terminus, bridges); printed as bicyclo[Tm-(D-Phe-Fpa-D-Thr-Pip-Nal-Arg-Ala)-Dap-(Phe-Nal-Arg-Arg-Arg-Arg-Dap)]-Lys; also: FITC on C-terminal Lys side chain (FA labeling)
B4: peptide 39 (Table 18) (peptide)
peptide: Trimesoyl-[D‑4‑Phe][Phe(4-F)][dI][Pip′][2Nal]RA[dF][Dap]F[2Nal]RRRR[Dap]K
modifications: linker (positions not given here) via Trimesoyl; not fully specified (C-terminus, bridges); printed as bicyclo[Tm-(D-4-Phe-Fpa-D-Ile-Pip-Nal-Arg-Ala-D-Phe)-Dap-(Phe-Nal-Arg-Arg-Arg-Arg-Dap)]-Lys; reading uncertain
B5: peptide 16 (Table 18) (peptide)
peptide: Trimesoyl-P[Sar][dD][Pip′][2Nal]RA[dA][dA][Dap]F[2Nal]RRRR[Dap]K-NH2
modifications: linker (positions not given here) via Trimesoyl; not fully specified (some residues, bridges); printed as bicyclo[Tm-(Pro-Sar-D-Asp-Pip-Nal-Arg-Ala-D-Ala-D-Ala)-Dap-(Phe-Nal-Arg-Arg-Arg-Arg-Dap)]-Lys
B6: peptide 36 (Table 18) (peptide)
peptide: Trimesoyl-[D‑3‑Fpa][Phe(4-F)][dT][Pip′][2Nal]RA[dF][Dap]F[2Nal]RRRR[Dap]K
modifications: linker (positions not given here) via Trimesoyl; not fully specified (C-terminus, bridges); printed as bicyclo[Tm-(D-3-Fpa-Fpa-D-Thr-Pip-Nal-Arg-Ala-D-Phe)-Dap-(Phe-Nal-Arg-Arg-Arg-Arg-Dap)]-Lys
B7: peptide 10 (Table 18) (peptide)
peptide: Trimesoyl-P[Sar][dD][Pip′][2Nal]R[Dap]F[2Nal]RRRR[Dap]K-NH2
modifications: linker (positions not given here) via Trimesoyl; not fully specified (some residues, bridges); printed as bicyclo[Tm-(Pro-Sar-D-Asp-Pip-Nal-Arg)-Dap-(Phe-Nal-Arg-Arg-Arg-Arg-Dap)]-Lys
B8: peptide 43 (Table 18) (peptide)
peptide: Trimesoyl-[dF][Phe(4-F)][dT][Pip′][2Nal]RA[dF][Dap]RR[2Nal]FRR[Dap]K
modifications: linker (positions not given here) via Trimesoyl; not fully specified (C-terminus, bridges); printed as bicyclo[Tm-(D-Phe-Fpa-D-Thr-Pip-Nal-Arg-Ala-D-Phe)-Dap-(Arg-Arg-Nal-Phe-Arg-Arg-Dap)]-Lys
B9: peptide 14 (Table 18) (peptide)
peptide: Trimesoyl-P[Sar][dD][Pip′][2Nal]R[βAla][dA][Dap]F[2Nal]RRRR[Dap]K-NH2
modifications: linker (positions not given here) via Trimesoyl; not fully specified (some residues, bridges); printed as bicyclo[Tm-(Pro-Sar-D-Asp-Pip-Nal-Arg-β-Ala-D-Ala)-Dap-(Phe-Nal-Arg-Arg-Arg-Arg-Dap)]-Lys
B10: peptide 46 (Table 18) (peptide)
peptide: [dA][Sar][d(pT)][Pip′][2Nal]YQK
modifications: lactam (positions not given here); not fully specified (C-terminus, bridges); printed as cyclo(D-Ala-Sar-D-pThr-Pip-Nal-Tyr-Gln)-Lys
B11: peptide 38 (Table 18) (peptide)
peptide: Trimesoyl-[dPhe(4-CN)][Phe(4-F)][dT][Pip′][2Nal]RA[dF][Dap]F[2Nal]RRRR[Dap]K
modifications: linker (positions not given here) via Trimesoyl; not fully specified (C-terminus, bridges); printed as bicyclo[Tm-(D-4-CyanoPhe-Fpa-D-Thr-Pip-Nal-Arg-Ala-D-Phe)-Dap-(Phe-Nal-Arg-Arg-Arg-Arg-Dap)]-Lys
B12: peptide 41 (Table 18) (peptide)
peptide: Trimesoyl-[d4Phe][Phe(4-F)][dhGlu][Pip][2Nal]RA[dF][Dap]F[2Nal]RRRR[Dap]K
modifications: linker (positions not given here) via Trimesoyl; not fully specified (bridges); printed as bicyclo[Tm-(D-4-Phe-Fpa-D-homoGlu-Pip-Nal-Arg-Ala-D-Phe)-Dap-(Phe-Nal-Arg-Arg-Arg-Arg-Dap)]-Lys; reading uncertain
B13: peptide 17 (Table 18) (peptide)
peptide: Trimesoyl-P[Sar][dD][Pip′][2Nal]RY[dA][Dap]F[2Nal]RRRR[Dap]K-NH2
modifications: linker (positions not given here) via Trimesoyl; not fully specified (some residues, bridges); printed as bicyclo[Tm-(Pro-Sar-D-Asp-Pip-Nal-Arg-Tyr-D-Ala)-Dap-(Phe-Nal-Arg-Arg-Arg-Arg-Dap)]-Lys
B14: peptide 27 (Table 18) (peptide)
peptide: Trimesoyl-[dF][Phe(4-F)][dT][Pip′][2Nal]RA[dF][Dap]F[2Nal]RRRR[Dap]K-NH2
modifications: linker (positions not given here) via Trimesoyl; not fully specified (some residues, bridges); printed as bicyclo[Tm-(D-Phe-4-Fpa-D-Thr-Pip-Nal-Arg-Ala-D-Phe)-Dap-(Phe-Nal-Arg-Arg-Arg-Arg-Dap)]-Lys
B15: peptide 35 (Table 18) (peptide)
peptide: Trimesoyl-[D‑2‑Fpa][Phe(4-F)][dT][Pip′][2Nal]RA[dF][Dap]F[2Nal]RRRR[Dap]K
modifications: linker (positions not given here) via Trimesoyl; not fully specified (C-terminus, bridges); printed as bicyclo[Tm-(D-2-Fpa-Fpa-D-Thr-Pip-Nal-Arg-Ala-D-Phe)-Dap-(Phe-Nal-Arg-Arg-Arg-Arg-Dap)]-Lys
B16: peptide 12 (Table 18) (peptide)
peptide: Trimesoyl-[dF][Phe(4-F)][dT][Pip′][2Nal]R[Dap]F[2Nal]RRRR[Dap]K-NH2
modifications: linker (positions not given here) via Trimesoyl; not fully specified (some residues, bridges); printed as bicyclo[Tm-(D-Phe-Fpa-D-Thr-Pip-Nal-Arg)-Dap-(Phe-Nal-Arg-Arg-Arg-Arg-Dap)]-Lys
B17: peptide 45 (Table 18) (peptide)
peptide: Trimesoyl-[dF][Phe(4-F)][dT][Pip′][2Nal]RA[dF][Dap][dR]R[dR]R[2Nal][dF][Dap]K
modifications: linker (positions not given here) via Trimesoyl; not fully specified (C-terminus, bridges); printed as bicyclo[Tm-(D-Phe-Fpa-D-Thr-Pip-Nal-Arg-Ala-D-Phe)-Dap-(D-Arg-Arg-D-Arg-Arg-Nal-D-Phe-Dap)]-Lys
B18: peptide 15 (Table 18) (peptide)
peptide: Trimesoyl-P[Sar][dD][Pip′][2Nal]R[βAla][βAla][Dap]F[2Nal]RRRR[Dap]K-NH2
modifications: linker (positions not given here) via Trimesoyl; not fully specified (some residues, bridges); printed as bicyclo[Tm-(Pro-Sar-D-Asp-Pip-Nal-Arg-β-Ala-β-Ala)-Dap-(Phe-Nal-Arg-Arg-Arg-Arg-Dap)]-Lys
B19: peptide 44 (Table 18) (peptide)
peptide: Trimesoyl-[dF][Phe(4-F)][dT][Pip′][2Nal]RA[dF][Dap]R[2Nal]RFRR[Dap]K
modifications: linker (positions not given here) via Trimesoyl; not fully specified (C-terminus, bridges); printed as bicyclo[Tm-(D-Phe-Fpa-D-Thr-Pip-Nal-Arg-Ala-D-Phe)-Dap-(Arg-Nal-Arg-Phe-Arg-Arg-Dap)]-Lys

The assay deals with Pin1 (Example 6, construct not stated) (human) (UniProt Q13526). Nature of the assay: fluorescence anisotropy.
B1 returned a dissociation constant Kd of 980 nM.
In the case of B2, the Kd is 480 nM and the fold increase of Pin1 inhibitory activity on substitution of D-Phe for D-Ala is 2 fold.
B3 had a dissociation constant (Kd) of 900 nM.
Regarding B4, the Kd is 460 nM.
For the molecule B5, the Kd is 2490 nM.
In the case of B6, the dissociation constant (Kd) turned out to be 390 nM.
Turning to B7, the Kd was 3420 nM.
The molecule B8 had a Kd of 1380 nM.
Consider B9, for which the Kd was found to be 1750 nM.
Same read-out and setting: for B10 the value was 240 nM.
Molecule B11 gave a dissociation constant Kd of 350 nM.
Consider B12, for which the Kd is 870 nM.
The molecule B13 gave a Kd of 2170 nM.
In the case of B14, the Kd came out at 270 nM and the fold improvement of binding affinity against peptide 4 was 2 fold.
For B15, the Kd turned out to be 590 nM.
In the case of B16, the Kd came out at 2360 nM.
As for B17, the Kd was 3100 nM.
Regarding B18, the Kd came out at 4830 nM.
B19 showed a Kd of 450 nM.

As usually defined, the Kd is the constant that tells how readily two partners part at equilibrium.
